Assay results taken from the PETadex activity labels (doi:10.1021/acsomega.4c04843).
Substitutions are numbered along the chain they refer to.

Columns and labels:
pNPB = assay: Proxy for plastic degradation [p-nitrophenol (pNP) release]; settings: pH 7.4
PET = assay: Proxy for plastic degradation [Released monomer concentration (HPLC/LC-MS) (TPA)]; settings: pH 8

B1: unnamed (protein)
chain: MLHYKTYTISDDHPWVIFIHGAGGSLSHWYRQLRPFRKKYNVLLVDLRGHGGSYDAEQSLKQPLNAYTFDVVAKDVIEVMDHLGIEKGHMVGLSLGTIVIQAMFEHYPDRIASVVLGGAIVKFNVRSTMLIRLGSLVQNFVPYMWLYKLFAWILLPKKRHKKSRMMFVRDAANLCQREFIRWFKMTENINPLLNQFTSIQTNVPILYIMGDEDYMFLEAVERTAKHQPTANVEIVADSGHVVNVDQPDQFNALSMNFIDDQIQARSLQMS
Proxy for plastic degradation (pNPB): 4 U/mL

B2: unnamed (protein)
chain: MFRFHIVSALLTLFIAVPSQAHDVGQREIKISGAEPGRNLEVSVWYPAAIDGKATLIGDNIIFKGAPAVIDATPEKGSFPLLVMSHGSGGRAQGMAWLATELVKAGIIVAAPNHPGTTSGDSTPQDTPKIWQRTGDLSAVIDTMTTDPAWSGIIDKNKISVLGWSLGGAAAMEIAGARANLEAYARYCDTYGKWDCAWYAGGIGYRDDKQIKVDKVDLRSVDKSRFEQSNLDRRIASAIMIDPGLAQAYDAQSLASISIPMSFINLGEVETIPTGVVADKLASITPQGTYVTVAGATHFSFLPECKKGAADRLKSAGEVDPICSDDARRPRADIHADITKLVLKALQSMPKT
Proxy for plastic degradation (pNPB): 5 U/mL

B3: unnamed (protein)
chain: B2 chain with W164H
Proxy for plastic degradation (pNPB): 15 U/mL

B4: unnamed (protein)
chain: B2 chain with W164F, L166M
Proxy for plastic degradation (pNPB): 225 U/mL

B5: unnamed (protein)
chain: B2 chain with W164F, C188A
Proxy for plastic degradation (pNPB): 10 U/mL

B6: unnamed (protein)
chain: B2 chain with W164F, A294D
Proxy for plastic degradation (pNPB): 100 U/mL | Proxy for plastic degradation (PET): 1 mM/mg

B7: unnamed (protein)
chain: B2 chain with W164F, D242A
Proxy for plastic degradation (pNPB): 20 U/mL

B8: unnamed (protein)
chain: B2 chain with W164F, F299W
Proxy for plastic degradation (pNPB): 110 U/mL

B9: unnamed (protein)
chain: B2 chain with W164F, F299I
Proxy for plastic degradation (pNPB): 75 U/mL

B10: unnamed (protein)
chain: B2 chain with W164F, H298A
Proxy for plastic degradation (pNPB): 15 U/mL

B11: unnamed (protein)
chain: B2 chain with W164F, S165A
Proxy for plastic degradation (pNPB): 15 U/mL

B12: unnamed (protein)
chain: MRKETAWFVGGAAIAAATAAGASVWSQYGSLVRWQEPELPIQPTTRRRHTYTYKIVHDRPLQFDLYLPPGEGPFPVAVYAHGGAFVRGNRSMVTLFHPLLDHFLGKGIAVVSIDYRLFEDGVYFPDNIFDVSDALCYLKQHESLLTLDTSQLLVWGDSAGAALMLATALDRYRQFAGDLGDDLPTIKGVIALYPPTNFLLFKFIQTWLAHLKFYEGSREEWRELMVKCSPVSHLYADAPPILLLHGKKDPIVPFGQALHFVEHASDVGANVQLISFPNGTHSLASFLQSDNPIKEEQLMARINRFIEECLG
Proxy for plastic degradation (pNPB): 25 U/mL

B13: unnamed (protein)
chain: MVPTTVDFDTLCPEPIFQDRWVATPRGRVFTRTWETSHLRSDVPIVLLHDSLGCVDLWRSFPAALCAATQRRVIAYDRLGFGRSDACLTPPLLSFIDDEPSTSFAALQSAFQLTHFIALGHSVGGCMAVHCAGQYVEQCQGLITIAAQAVNEPRTQQGIEEARAAFQMPEQFAKLEKYHGNKARWVLNGWIDTWLHPAFEHWSLTPALQHVHCPTLVLHGENDEYGSHRQPEGIARHTRGPAHTEILPGVGHVPHREVEAVVVHYVSEFIERLTP
Proxy for plastic degradation (pNPB): 30 U/mL

B14: unnamed (protein)
chain: MPPFRSSRWLSGGHVQTLYSPLWRASPQLQRRRERMTLQDGDFIDLDWYGPEGEATNCVLLLHGLTGSSASLYILGQQQALAARGWQSAAVNWRGCSGEPNHRARGYHSGVSEDLADVVKQLTLRYPHKLFAAIGYSLGGNVLLKYLGEKGSNTPLKAAVAVSVPFRLDHCAERINKGFSRVYQARFLRGLRRYVEHKRQAFLRQGRRGELARLAALETLKGMKTFWDFDGRVTAPLHGFESADDYYRRCSSAFFVEQIRIPTLIVHSLDDPFIYPQSVPKAEVLPSCVTLELHASGGHVGFIEGPPWRPRYYLEHRLPNWLQSQLCSQGKTHNTSALLSN
Proxy for plastic degradation (pNPB): 3 U/mL
